Data on one substance can be found in PMC3164632.

For the experiment, the target named is West Nile virus envelope (E) protein (West Nile virus).

For “Aedes aegypti pupal cuticle (PC) protein (AAEL011045) (natural protein)”, the survival of mice injected i.p. with WNV pre-incubated with PC protein for an hour at 37°C (against WNV alone, all of which died within 14 days p.i.) stood at 60%.
